The target of experiment [1] is PDIA1 (human) (UniProt P07237). Description: co-IP from LIM1215 lysates equalised for ADAM10, mass spectrometry.
In experiment [2] the target is T1, AxxA mutant human ADAM10 (Cys594 and Cys597 to alanine) (human, UniProt O14672 214-748).
T1 construct: Expressed in ADAM10-/- mouse embryonic fibroblasts; tested in detergent lysates by IP; also called AXXA mutant ADAM10; AxxA ADAM10; not shown: turbo-myc tag of the OriGene construct
T1 sequence: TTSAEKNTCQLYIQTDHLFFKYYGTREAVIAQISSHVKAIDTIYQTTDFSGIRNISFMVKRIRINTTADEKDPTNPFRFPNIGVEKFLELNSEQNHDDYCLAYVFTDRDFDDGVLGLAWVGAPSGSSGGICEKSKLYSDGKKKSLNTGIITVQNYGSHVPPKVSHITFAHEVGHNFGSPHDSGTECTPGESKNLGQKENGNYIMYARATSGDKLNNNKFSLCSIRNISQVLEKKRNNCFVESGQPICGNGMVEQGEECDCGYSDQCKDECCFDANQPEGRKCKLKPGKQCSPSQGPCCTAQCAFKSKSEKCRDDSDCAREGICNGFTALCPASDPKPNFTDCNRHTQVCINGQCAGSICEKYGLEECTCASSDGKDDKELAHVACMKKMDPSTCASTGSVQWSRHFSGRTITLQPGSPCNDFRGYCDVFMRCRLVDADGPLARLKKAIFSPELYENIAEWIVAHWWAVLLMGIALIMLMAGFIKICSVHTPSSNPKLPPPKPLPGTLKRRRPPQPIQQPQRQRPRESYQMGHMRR
Description: immunoprecipitation from lysates of ADAM10-/- MEFs transfected with AxxA mutant ADAM10, Western blot α-ADAM10. On the technique in general: A western blot detects proteins with antibodies after separation by electrophoresis.

Experiment [3] deals with T2, recombinant huADAM10D+C protein (human, UniProt O14672 455-646).
T2 construct: the whole entry is named here (the bovine construct was 455-646); also called huADAM10D+C domain protein; immobilised recombinant huADAM10D+C
T2 sequence: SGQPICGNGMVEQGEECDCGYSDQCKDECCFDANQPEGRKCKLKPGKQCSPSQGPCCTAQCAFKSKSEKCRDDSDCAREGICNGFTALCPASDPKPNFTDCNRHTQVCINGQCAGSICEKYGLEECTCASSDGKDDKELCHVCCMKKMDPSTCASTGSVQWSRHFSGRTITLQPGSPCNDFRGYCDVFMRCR
Description: SPR, BIAcore 3000, huADAM10D+C immobilised, antibody in solution. A general note: In SPR one partner is held on a chip, and binding of the other changes the refractive index at the surface.

PDIA1 (human), sequence (P07237 18-508 limits assumed): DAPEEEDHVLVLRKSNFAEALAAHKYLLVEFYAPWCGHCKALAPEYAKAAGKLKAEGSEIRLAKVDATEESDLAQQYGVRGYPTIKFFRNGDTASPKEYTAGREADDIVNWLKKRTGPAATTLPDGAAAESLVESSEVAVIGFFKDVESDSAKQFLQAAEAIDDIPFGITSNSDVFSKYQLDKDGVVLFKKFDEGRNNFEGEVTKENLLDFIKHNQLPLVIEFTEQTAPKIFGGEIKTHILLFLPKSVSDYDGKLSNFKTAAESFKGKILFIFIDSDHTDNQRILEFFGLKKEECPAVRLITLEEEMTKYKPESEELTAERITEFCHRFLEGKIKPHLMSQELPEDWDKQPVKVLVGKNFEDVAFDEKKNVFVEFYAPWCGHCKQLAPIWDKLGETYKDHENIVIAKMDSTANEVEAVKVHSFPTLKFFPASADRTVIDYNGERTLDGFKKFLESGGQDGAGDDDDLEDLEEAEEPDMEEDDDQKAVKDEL

With “human ADAM10, endogenous full length (from UniProt O14672 214-748) (enzyme)”, the fold more peptides detected in 8C7 IPs than in 4A11 IPs in experiment [1] was above 50 fold.

B1: anti-ADAM10 monoclonal antibody 8C7 (murine) (antibody, V domains shown)
VH: EVQLQQSGAELARPGSSVKLSCKASGYTFTNYWLQWVKQRTGQGLEWIGAIYPRDGDAKYSQKFKDKASLTVNESSSTAYMHLSALASEDSAVYYCARANYGLYYAMDRWGQGTSVTVSS
VL: DIFLTQSPANMSVSPGERVSFSCRASQNIGTNIHWYQQRTNGSPRLLIKYASESISGIPSRFSGSGSGTDFILSINTVESEDIAVYFCQQSNRWPFTFGSGTKLEVI
modifications: Alexa647 dye or coupling to Minileak beads in some experiments; not carried by the letters
notes: Murine whole IgG; Used soluble, coupled to Minileak beads, or Alexa647-labelled depending on the experiment; also called mAb 8C7; mAb8C7
Take B1: in experiment [2], the binding result was “no binding”.

B2: hu8C7, fully humanised version of 8C7 (antibody, human IgG1, kappa, V domains shown)
VH: EVQLQQSGAELAKPGSSVKLSCKASGYTFTNYWLQWVKQRPGQGLEWIGAIYPRDGDAKYSQKFKDKASITVNESTSTAYMHLSSLRSEDTAVYYCARANYGLYYAMDRWGQGTTVTVSS
VL: DIVLTQSPAFMSVSPGERVSVSCRASQNIGTNIHWYQQRPDQSPRLLIKYASESISGIPSRFSGSGSGTDFYLTINSVESEDIAVYFCQQSNRWPFTFGSGTKLEVKR
notes: Human IgG1-kappa; humanised variable domains replaced the murine ones in the ch8C7 constructs; The exact V/C junction is not described; also called humanized 8C7
The Kd is the free concentration of one partner at which half of the binding sites on the other are occupied at equilibrium, for simple one-to-one binding. As usually defined, the koff is a measure of how fast the partners let go of each other. Broadly, the kon is a measure of how fast the partners come together. Turning to B2, in experiment [3], the Kd amounted to 7.33 nM, the koff worked out at 0.00122 s⁻¹ and the kon was 166000 M⁻¹ s⁻¹.

B3: ch8C7, human and mouse chimerised version of mAb 8C7 (antibody, V domains shown)
VH: EVQLQQSGAELARPGSSVKLSCKASGYTFTNYWLQWVKQRTGQGLEWIGAIYPRDGDAKYSQKFKDKASLTVNESSSTAYMHLSALASEDSAVYYCARANYGLYYAMDRWGQGTSVTVSS
VL: DIFLTQSPANMSVSPGERVSFSCRASQNIGTNIHWYQQRTNGSPRLLIKYASESISGIPSRFSGSGSGTDFILSINTVESEDIAVYFCQQSNRWPFTFGSGTKLEVIR
notes: The exact V/C junction is not described; also called chimeric 8C7
On to B3, for which, in experiment [3], the Kd was found to be 6.71 nM, the koff is 0.00105 s⁻¹ and the kon was determined as 157000 M⁻¹ s⁻¹.

The values are drawn from patent US20190105405A1 (MONASH UNIVERSITY, published 2019).
